# Test results published in US20120129757A1, “COMPOSITIONS AND METHODS FOR PROMOTING VASCULAR BARRIER FUNCTION AND TREATING PULONARY FIBROSIS” (priority 2008, published 2012).
# “Also recorded” adds a separate entry of the source.
# Columns and labels:
# BL/6 mice = type: in vivo, mouse
# endothelial cell = assay: VEGF mediated endothelial cell migration; type: cell-based; conditions: Slit constructs 2 nM
# HMVEC-lung [1] = assay: Subcellular (membrane) fractionation and immunoblotting; type: cell-based, human
# Procedure: Subcellular fractionation. HMVEC-lung were treated with Slit2N or Mock in 0.1% FBS EBM-2 for 1.5 hours. Cells were then washed twice with ice-cold PBS containing Ca^2+/Mg^2+, once with HLB buffer (10 mM Tris-HCl PH7.4, 5 mM KCl, 1 mM MgCl2), and collected in HLB buffer supplemented with protease inhibitors (Roche), phosphatase inhibitors (Sigma) and 1 mM DTT. Cells were then dounce-homogenized (20 strokes). The homogenate was centrifuged at 400 g for 10 minutes at 4° C. to pellet cell debris. The resulting supernatant was centrifuged again at 16,000 g for 30 minutes at 4° C. The pellet was washed once with HLB and resuspended in RIPA buffer for 30 minutes at 4° C. The resuspended pellet was centrifuged (16,000 g/15 min at 4° C.), and the resulting supernatant was saved as soluble membrane fraction. To obtain the total cell lysate an aliquot was saved prior to dounce homogenization. RIPA buffer was added to this aliquot and centrifuged at 13,000 g for 10 minutes at 4° C. The supernatant was saved and used as total cell lysate. Antibodies to VE-cadherin were obtained from Cell Signaling, and p120-catenin and β-catenin from BD biosciences.
# VE-cadherin = VE-cadherin internalization assay; type: cell-based, human; conditions: HMVEC-lung, 10 ng/ml IL-1β 1 hour, 10 nM Slit2N
# Procedure: Internalization assay. VE-cadherin internalization was performed as described Xiao, K., J. Garner, K. M. Buckley, P. A. Vincent, C. M. Chiasson, E. Dejana, V. Faundez, and A. P. Kowalczyk. 2005. p120-Catenin regulates clathrin-dependent endocytosis of VE-cadherin. Mol Biol Cell 16:5141-5151. In brief, HMVEC-lung were seeded onto chamber slides and cultured for 72 hours. The media was then removed and the cells labeled for 30 minutes at 4° C. with anti-VE-cadherin antibody (clone BV6, RDI Fitzgerald). Cells were then pre-treated with Slit2N or Mock for 30 minutes. Excess antibody was removed by washing twice on ice with ice-cold media. Chamber slides were moved to 37° C. and incubated for 1 hour with 10 ng/ml IL-1β and 0.6 mM primaquine in the presence of 10 nM Slit2N or Mock. Cells were acid-washed to strip the surface-bound VE-cadherin. Monolayers were washed, fixed, and permeablized. Internalized VE-cadherin antibody was detected with Alexa 488-conjugated donkey anti-mouse IgG (Molecular Probes). Images are representative of four independent experiments.
# C57BL/6 mice [2] = type: in vivo, mouse
# HMVEC-lung [3] = assay: Immunofluorescence for VE-cadherin and p120-catenin after IL-1β stimulation; type: cell-based, human; conditions: 10 ng/mL IL-1β 3 hours, Slit2N pre-treatment 30 minutes
# Procedure: Immunofluorescence. Immunofluorescence was performed as described in Jones, C. […] 2008. Cells were pre-treated with Slit2N or Mock for 30 minutes followed by stimulation with 10 ng/mL IL-1β for 3 hours. Primary antibodies to VE-cadherin (BD biosciences) or p120-catenin (Santa Cruz) were applied at 4° C. overnight. Images are representative of three independent experiments.
# [4] = tested on: H5N1 virus (Influenza A, Duck/MN/1525/81); type: in vivo, BALB/c mice
# primary human PMNs = assay: Neutrophil migration to fMLP, primary hPMNs; type: cell-based; conditions: fMLP 10 μM, 2 h
# Procedure: Neutrophil migration. HL-60 cells were grown under standard conditions with RPMI-1640 media supplemented with 10% FBS and 1% pen/step. Cells induced with 1.2% dimethyl sulphoxide (DMSO) were obtained by seeding HL-60 cells at 3×10^6 per mL in growth media and culturing for 4 6 days (Collins, S. J., F. W. Ruscetti, R. E. Gallagher, and R. C. Gallo. 1978. Terminal differentiation of human promyelocytic leukemia cells induced by dimethyl sulfoxide and other polar compounds. Proc Natl Acad Sci USA 75:2458-2462). hPMNs were isolated from healthy adult donor whole blood with ACD using techniques described in Zimmerman, G. A., T. M. McIntyre, and S. M. Prescott. 1985. Thrombin stimulates the adherence of neutrophils to human endothelial cells in vitro. J Clin Invest 76:2235-2246. The leukocyte chemoattractant fMLP (10 μM) along with Slit2 or Mock was placed in the lower wells of a 48-well chemotaxis chamber (Neuroprobe). A fibronectin coated (over night at 4° C.) polycarbonate membrane (Neuroprobe, 5 μm) was placed between the chemoattractant and the cells. HL-60 cells induced with DMSO or hPMNs (50 μl, 50,000 cells) were added to the upper wells. […] Migrated cells in 5 high power fields were counted and migration expressed as the percent of cells migrated compared to cells migrated towards fMLP in the absence of Slit2 or Mock.
# [5] = tested on: VE-cadherin/p120-catenin interaction; assay: Immunoprecipitation of VE-cadherin, immunoblot for p120-catenin; type: cell-based, human; conditions: HMVEC-lung, 10 ng/mL IL-1β 10 minutes
# Procedure: Immunoprecipitation. HMVEC-lung were treated with Slit2N or Mock in 0.1% FBS EBM-2 for 30 minutes. Cells were then stimulated with 10 ng/mL IL-1β for 10 minutes. HMVEC-lung were then washed with ice-cold PBS and lysed with ice-cold lysis buffer (10 mM Tris-HCl pH7.4, 50 mM NaCl, 1% NP-40 and 10% glycerol) supplemented with protease inhibitors, phosphatase inhibitors and 1 mM DTT. Cell lysates were incubated on ice for 30 min and centrifuged at 13,000 g for 15 minutes to pellet cell debris. Protein concentrations were determined by BCA assay (PIERCE) and 0.5 mg lysate were incubated with 8 μg of VE-cadherin antibody (Cell Signaling) and protein A/G sepharose (Santa Cruz) for 1 hour at 4° C. Complexes were washed three times with lysis buffer. The immunoprecipitates were subjected to Western blot analysis.
# C57BL/6 mice [6] = type: in vivo, mouse; remark: listed apart in the source
# [7] = Slit2N vs Mock, membrane fraction
# [8] = 20 μg VE-cadherin blocking antibody (BV13) IV, LPS IT
# [9] = Robo4+/+ mice, 24 hours after LPS, dose-dependent
molecule,measurement,setting,value
"COc1nc(-c2ccc3c(c2)OCO3)n(-c2ccc(NC(=O)CSc3ccccc3)cc2)n1 [SecinH3, reference compound]",Bleomycin-induced fibrosis (Sircol collagen assay),"BL/6 mice; BL/6 mice, 0.05 U Bleomycin intranasal, 100 uL of 30 uM SecinH3 i.p. twice a day, day 11",inhibits
"Slit2-D1: Recombinant Slit2 construct, 40 kD, SEQ ID NO: 7 (protein, listed as Homo sapiens) ILNKVAPQACPAQCSCSGSTVDCHGLALRSVPRNIPRNTERLDLNGNNITRITKTDFAGLRHLRVLQLMENKISTIERGAFQDLKELERLRLNRNHLQLFPELLFLGTAKLYRLDLSENQIQAIPRKAFRGAVDIKNLQLDYNQISCIEDGAFRALRDLEVLTLNNNNITRLSVASFNHMPKLRTFRLHSNNLYCDCHLAWLSDWLRQRPRVGLYTQCMGPSHLRGHNVAEVQKREFVCS",Inhibition of VEGF mediated endothelial cell migration,endothelial cell,active
"Slit2N: N-terminal active fragment of Slit2 released by proteolytic cleavage; 150 kD recombinant protein, SEQ ID NO: 4 (protein, listed as Homo sapiens) QACPAQCSCSGSTVDCHGLALRSVPRNIPRNTERLDLNGNNITRITKTDFAGLRHLRVLQLMENKISTIERGAFQDLKELERLRLNRNHLQLFPELLFLGTAKLYRLDLSENQIQAIPRKAFRGAVDIKNLQLDYNQISCIEDGAFRALRDLEVLTLNNNNITRLSVASFNHMPKLRTFRLHSNNLYCDCHLAWLSDWLRQRPRVGLYTQCMGPSHLRGHNVAEVQKREFVCSDEEEGHQSFMAPSCSVLHCPAACTCSNNIVDCRGKGLTEIPTNLPETITEIRLEQNTIKVIPPGAFSPYKKLRRIDLSNNQISELAPDAFQGLRSLNSLVLYGNKITELPKSLFEGLFSLQLLLLNANKINCLRVDAFQDLHNLNLLSLYDNKLQTIAKGTFSPLRAIQTMHLAQNPFICDCHLKWLADYLHTNPIETSGARCTSPRRLANKRIGQIKSKKFRCSGTEDYRSKLSGDCFADLACPEKCRCEGTTVDCSNQKLNKIPEHIPQYTAELRLNNNEFTVLEATGIFKKLPQLRKINFSNNKITDIEEGAFEGASGVNEILLTSNRLENVQHKMFKGLESLKTLMLRSNRITCVGNDSFIGLSSVRLLSLYDNQITTVAPGAFDTLHSLSTLNLLANPFNCNCYLAWLGEWLRKKRIVTGNPRCQKPYFLKEIPIQDVAIQDFTCDDGNDDNSCSPLSRCPTECTCLDTVVRCSNKGLKVLPKGIPRDVTELYLDGNQFTLVPKELSNYKHLTLIDLSNNRISTLSNQSFSNMTQLLTLILSYNRLRCIPPRTFDGLKSLRLLSLHGNDISVVPEGAFNDLSALSHLAIGANPLYCDCNMQWLSDWVKSEYKEPGIARCAGPGEMADKLLLTTPSKKFTCQGPVDVNILAKCNPCLSNPCKNDGTCNSDPVDFYRCTCPYGFKGQDCDVPIHACISNPCKHGGTCHLKEGEEDGFWCICADGFEGENCEVNVDDCEDNDCENNSTCVDGINNYTCLCPPEYTGELCEEKLDFCAQDLNPCQHDSKCILTPKGFKCDCTPGYVGEHCDIDFDDCQDNKCKNGAHCTDAVNGYTCICPEGYSGLFCEFSPPMVLPRT",VE-cadherin levels at the cell surface junctions,"HMVEC-lung [1]; Slit2N vs Mock 1.5 hours, membrane fraction and immunofluorescence",significantly increased
same,cell surface p120-catenin expression,HMVEC-lung [1]; [7],increased
same,other junction or catenin family members (β-catenin),HMVEC-lung [1]; [7],no observed effect
same,internalization of VE-cadherin induced by IL-1β,VE-cadherin,blocks
same,survival of mice exposed to CLP-induced sepsis,"C57BL/6 mice [2]; mouse, in vivo, ip",~80%
same,expression of a panel of cytokines and chemokines in plasma,C57BL/6 mice [2]; six hours after CLP,did not alter
same,Bleomycin-induced pulmonary fibrosis (Sircol collagen),"BL/6 mice; Robo4+/+ mice, day 11, 5 μg daily i.p.",significantly reduced
same,Bleomycin-induced EBA accumulation in the lung,"BL/6 mice; Robo4+/+ mice, eleven days after Bleomycin, 5 μg daily i.p.",significantly reduced
same,"histologic examination of the lung, trichrome stain (collagen deposition)",BL/6 mice; Robo4-dependent manner,confirmed the effect
same,"effect on Bleomycin-induced EBA accumulation in the lung, Robo4-null mice",BL/6 mice; Robo4AP/AP mice,lost
same,"effect on Bleomycin-induced pulmonary fibrosis, Robo4-null mice",BL/6 mice; Robo4AP/AP mice,lost
same,IL-1β decrease of p120-catenin at the cell surface,HMVEC-lung [3],reversed this effect
same,IL-1β reduction of VE-cadherin levels at the cell surface,HMVEC-lung [3],negated this effect
same,lung pathology (H&E),"[4]; 6 days after infection, compared to mock treated mice",decreased in severity
same,level of inflammatory cytokine release in lung homogenates,[4]; 6 days post-infection,does not significantly reduce
same,lung viral titers (viral load),[4]; 6 days post-infection,did not alter
same,mortality after H5N1 infection,"[4]; 21 days, 1.56 μg IV daily for 5 days",reduced
same,neutrophil migration to fMLP,primary human PMNs,did not respond
same,association of VE-cadherin and p120-catenin after IL-1β,[5],restores
same,inflammatory cell infiltration in BALF in the presence of a VE-cadherin blocking antibody,C57BL/6 mice [6]; [8],not
same,protein exudates in BALF in the presence of a VE-cadherin blocking antibody,C57BL/6 mice [6]; [8],not
same,inflammatory cell infiltration in BALF in the presence of a control IgG antibody,"C57BL/6 mice [6]; 20 μg control IgG IV, LPS IT",reduced
same,protein exudates in BALF in the presence of a control IgG antibody,"C57BL/6 mice [6]; 20 μg control IgG IV, LPS IT",reduced
same,vascular leak in the lungs (Evans Blue Albumin),"C57BL/6 mice [6]; LPS treated Robo4+/+ mice, 10 μg LPS IT, 3.5 μg Slit2N IV",significantly reduces
same,"effect on vascular leak in the lungs (Evans Blue Albumin), Robo4-null mice",C57BL/6 mice [6]; LPS treated Robo4AP/AP mice,lost
same,"LPS-induced lung inflammation / ALI by histological examination (H&E, quantitative histology)",C57BL/6 mice [6]; Robo4+/+ mice,reducing; also recorded: reduces
same,inflammatory cell accumulation in BALF,C57BL/6 mice [6]; [9],reduced
same,protein exudates in BALF,C57BL/6 mice [6]; [9],reduced
same,"inhibition of leukocyte accumulation in BALF, Robo4-null mice",C57BL/6 mice [6]; Robo4AP/AP mice,lost
same,"inhibition of protein accumulation in BALF, Robo4-null mice",C57BL/6 mice [6]; Robo4AP/AP mice,lost
